The results in this text go back to paper PMC5013604.

A short description of series [1]: cycloheximide chase, western blot, MDA-MB-231. The settings on record: glycan lost; control: wild type.
The nature of series [2]: western blot with GSK3β and β-TrCP overexpression. The settings on record: glycan lost; control: wild type (co-expressed). In general terms: Immunoblotting shows a protein as a band on a membrane.
Series [3] in a line: PD-L1 IP, anti-K48 ubiquitin blot, with MG132. To be noted: glycan lost; control: MG132 without tunicamycin.

“PD-L1 (programmed death ligand-1, B7-H1): 4NQ”: in series [1], the “degradation_or_half_life, half_life” value is recorded as “decreases”. Also, in series [2], the expression_or_secretion entry is given as “decreases”.

With “PD-L1 (programmed death ligand-1, B7-H1): N35/3NQ”, in series [1], the “degradation_or_half_life, half_life” value was “decreases”.

Consider “PD-L1 (programmed death ligand-1, B7-H1): N35Q”, for which the “degradation_or_half_life, half_life” value in series [1] was “no change”.

In the case of “PD-L1 (programmed death ligand-1, B7-H1): N192Q”, in series [1], the “degradation_or_half_life, half_life” value was “decreases”.

Take “PD-L1 (programmed death ligand-1, B7-H1): N200Q”: the “degradation_or_half_life, half_life” value in series [1] is “decreases”.

As for “PD-L1 (programmed death ligand-1, B7-H1): N219Q”, the “degradation_or_half_life, half_life” value in series [1] is recorded as “decreases”.

For the substance “PD-L1 (programmed death ligand-1, B7-H1): tunicamycin”, in series [3], the “other: ubiquitination” value is “increases”.
